We go through one molecule from paper PMC3977038 (Nature structural & molecular biology, 2014).

The target of experiment [1] is T1, IgE-Fc(N265Q,N371Q) (human, UniProt P01854).
T1 chain: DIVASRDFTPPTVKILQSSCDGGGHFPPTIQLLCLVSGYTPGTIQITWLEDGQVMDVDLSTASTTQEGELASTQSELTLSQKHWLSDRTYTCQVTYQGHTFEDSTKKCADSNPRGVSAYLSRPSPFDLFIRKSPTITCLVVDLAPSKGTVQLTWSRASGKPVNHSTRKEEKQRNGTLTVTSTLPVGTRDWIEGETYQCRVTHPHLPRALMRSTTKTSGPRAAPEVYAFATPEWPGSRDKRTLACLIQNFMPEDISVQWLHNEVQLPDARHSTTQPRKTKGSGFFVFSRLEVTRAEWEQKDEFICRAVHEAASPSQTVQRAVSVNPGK
Kind of experiment: SPR. On the technique in general: Surface plasmon resonance follows binding to a sensor surface in real time, without labels.

Experiment [2] concerns the target T1, IgE-Fc(N265Q,N371Q). Kind of experiment: ITC. (In general: In ITC the heat of successive injections is recorded.)
For experiment [3], the target named is T1, IgE-Fc(N265Q,N371Q). Kind of experiment: stopped-flow fluorescence.
Experiment [4] has as its target T1, IgE-Fc(N265Q,N371Q). Kind of experiment: ITC.

B1: anti-ε-chain Fab (aεFab), anti-human IgE-Fc antibody in human IgG1 Fab format (Fab, V domains shown)
VH: QVQLQQSGPGLVKPSQTLSLTCGISGDSVSSNSAAWNWLRQSPSRGLEWLGRTYYRSKWYNDYAVSMKSRITINPDTSRNQFSLQLNSVTPEDTAVYYCARDGEISYDYYYYGMDVWGRGTLVTVSS
VL: QSVLTQPPSASGTPGQRVTISCSGSSSNIGNNGVNWYQQVPGKPPKLLIYYDDLLPSGVSDRFSGSKSGTSASLAISGLQSEDEADYYCEAWDDSLDGVVFGGGTKLTVL
A word on the Kd: it is the free concentration of one partner at which half of the binding sites on the other are occupied at equilibrium, for simple one-to-one binding. Lower therefore signals higher affinity. As usually defined, the kon is the second-order rate constant of association. The molecule B1 showed a Kd with IgE-Fc(N265Q,N371Q) [1] of 95 nM. In addition, in the experiment with IgE-Fc(N265Q,N371Q) [2], the “dH1 (first site)” value is -3.5 ± 0.1 kcal/mol and the “dH2 (second site)” value is -1.3 ± 0.1 kcal/mol. The molecule further displayed a kon with IgE-Fc(N265Q,N371Q) [3] of 670000 M⁻¹ s⁻¹. For the same molecule, in the experiment with IgE-Fc(N265Q,N371Q) [4], the affinity, expressed as Kd, was 40 ± 20 nM and the dH is -3.5 ± 0.1 kcal/mol.
